Substrate: NC(=O)C1=CN([C@@H]2O[C@H](COP(=O)(O)OP(=O)(O)OC[C@H]3O[C@@H](n4cnc5c(N)ncnc54)[C@H](O)[C@@H]3O)[C@@H](O)[C@H]2O)C=CC1
Assay: cells, lysate or membranes
Format: biochemical, Arabidopsis thaliana
Conditions: rotenone-resistant activity in AtNDA2-transfected control fibroblasts, DCQ 50 μM, rotenone 8 μM, KCN 650 μM, 10 mM KH2PO4 pH 7.2, BSA, 37 °C

B1: AtNDA2 (Arabidopsis thaliana) (protein)
chain: SPAKIPNDVDRSQYSGLPPTREGEKPRVVVLGSGWAGCRLMKGIDTNLYDVVCVSPRNHMVFTPLLASTCVGTLEFRSVAEPISRIQPAISREPGSFFFLANCSRLDADAHEVHCETLTDGLNTLKPWKFKIAYDKLVIASGAEASTFGIHGVMENAIFLREVHHAQEIRRKLLLNLMLSDTPGISKEEKRRLLHCVVVGGGPTGVEFSGELSDFIMKDVRQRYAHVKDDIHVTLIEARDILSSFDDRLRRYAIKQLNKSGVRFVRGIVKDVQSQKLILDDGTEVPYGLLVWSTGVGPSPFVRSLGLPKDPTGRIGIDEWMRVPSVQDVFAIGDCSGYLETTGKPTLPALAQVAEREGKYLANLLNAIGKGNGGRANSAKEIELGVPFVYKHLGSMATIGRYKALVDLRESKDAKGISMTGFVSWFIWRSAYLTRVISWRNRFYVAINWFTTFVFGRDISRI
notes: lentiviral expression in human control fibroblasts (NHDF); permeabilised cells
B1 gave a Km of 9.7 ± 3.3 µM.

— publication PMC6821020, “Arabidopsis thaliana alternative dehydrogenases: a potential therapy for mitochondrial complex I deficiency? Perspectives and pitfalls” (Orphanet Journal of Rare Diseases, 2019)
